Holding throughout (conditions): both partners purified
The target in assay [1] is T1, VcSiaP (Vibrio cholerae O1 El Tor N16961 …, UniProt Q9KR64).
T1 construct: all residues 1-299 seen in the crystal structures; also called SiaP from V. cholerae; VcSiaPwt; not shown: His6, N-terminal, cleaved
In words: ITC; VHH titrated to the SBP, 25 °C, 50 mM Tris, 50 mM NaCl, pH 8.0; one set of sites model.

Assay [2] concerns the target T1, VcSiaP. The assay can be described thus: SEC-MALS; Superose6 increase 10/300, room temperature, 50 mM Tris, 50 mM NaCl, pH 8.0; 120 uM of each protein.
Assay [3] has as its target T1, VcSiaP. In words: ITC; SiaP first loaded with Neu5Ac, then titrated with the VHH (sequential titration), 25 °C, 50 mM Tris, 50 mM NaCl, pH 8.0; competitive binding model for the wild type.

Values joined by “and” are separate entries in the source; they are usually repeats but may differ in a detail not shown here. Equal entries are not always repeated.

T1 sequence (Q9KR64 23-321, one chain of several): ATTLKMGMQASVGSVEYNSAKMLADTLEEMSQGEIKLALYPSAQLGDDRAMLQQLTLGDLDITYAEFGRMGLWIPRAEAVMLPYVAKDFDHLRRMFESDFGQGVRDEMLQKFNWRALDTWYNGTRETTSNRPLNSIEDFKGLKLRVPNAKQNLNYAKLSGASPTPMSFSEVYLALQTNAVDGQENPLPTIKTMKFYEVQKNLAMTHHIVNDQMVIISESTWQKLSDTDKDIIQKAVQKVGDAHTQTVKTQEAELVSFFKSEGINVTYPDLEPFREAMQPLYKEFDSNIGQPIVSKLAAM

B1: VHHVcP #2 (VHH)
VHH: QVQLVESGGRLVQTGGSLRLSCAASGDTFSNYVMGWFRQAPGKEREFVAAISWTGANSYYADSVAGRFTISRDNAKNTVALQMNSLKPEDTAIYYCAADHFHVTHRKYDYWGQGTQVTVSS
notes: alpaca VHH raised against VcSiaP; A second construct (pET28a, N-terminal pelB-His6-TEV, tag cleaved) was made to improve crystallization; also called Vc#2; source: E. coli WK6, periplasmic extract, purified (Ni2+-NTA, SEC); not shown: HA, C-terminal, kept; His6, C-terminal, kept
With B1, the Kd in assay [1] is 13 nM and 16 nM. The “stoichiometry N” value in assay [2] was 1; in assay [3] it was around 1.

B2: VHHVcP #1 (VHH)
VHH: QVQLVESGGGLVQAGGSLRLSCAASGRTFSSSTMGWFRQAPGKEREFVAGISWSDGSTYYADSVKGRFTISRDNAKNTVYLQMNSLKPEDSAVYYCAAERWLATPQAMAVTPNALDAWGQGTQVTVSS
notes: alpaca VHH raised against VcSiaP; A second construct (pET28a, N-terminal pelB-His6-TEV, tag cleaved) was made to improve crystallization; also called Vc#1; source: E. coli WK6, periplasmic extract, purified (Ni2+-NTA, SEC); not shown: HA, C-terminal, kept; His6, C-terminal, kept
Take B2: the dissociation constant Kd in assay [1] is 162 nM. The “stoichiometry N” value in assay [2] amounted to 1.

These data come from article PMC11585616, “Allosteric substrate release by a sialic acid TRAP transporter substrate binding protein” (Communications Biology, 2024).
